Experimental findings from article doi:10.1101/2025.06.25.661518, “Structural insights into DNA annealing and recombination by herpesviral DNA-binding proteins ICP8 and BALF2” (bioRxiv, 2025) are described below.

Data set [1] deals with the molecule itself. The experiment in a line: cryo-EM structure; ICP8 double filament reconstituted with linear dsDNA carrying long ssDNA tails (T4 polymerase-treated); single-particle analysis of filament segments, 3.2 Å; DNA could not be built into the map.
Data set [2] deals with the molecule itself. The experiment in a line: filament reconstitution seen by electron microscopy; protein incubated without DNA under the same conditions as the filament reconstitution; kind of microscopy not told.

B1: ICP8, full-length (Herpes Simplex Virus 1 DNA-binding protein) (natural protein)
chain: METKPKTATTIKVPPGPLGYVYARACPSEGIELLALLSARSGDSDVAVAPLVVGLTVESGFEANVAVVVGSRTTGLGGTAVSLKLTPSHYSSSVYVFHGGRHLDPSTQAPNLTRLCERARRHFGFSDYTPRPGDLKHETTGEALCERLGLDPDRALLYLVVTEGFKEAVCINNTFLHLGGSDKVTIGGAEVHRIPVYPLQLFMPDFSRVIAEPFNANHRSIGEKFTYPLPFFNRPLNRLLFEAVVGPAAVALRCRNVDAVARAAAHLAFDENHEGAALPADITFTAFEASQGKTPRGGRDGGGKGAAGGFEQRLASVMAGDAALALESIVSMAVFDEPPTDISAWPLFEGQDTAAARANAVGAYLARAAGLVGAMVFSTNSALHLTEVDDAGPADPKDHSKPSFYRFFLVPGTHVAANPQVDREGHVVPGFEGRPTAPLVGGTQEFAGEHLAMLCGFSPALLAKMLFYLERCDGAVIVGRQEMDVFRYVADSNQTDVPCNLCTFDTRHACVHTTLMRLRARHPKFASAARGAIGVFGTMNSMYSDCDVLGNYAAFSALKRADGSETARTIMQETYRAATERVMAELETLQYVDQAVPTAMGRLETIITNREALHTVVNNVRQVVDREVEQLMRNLVEGRNFKFRDGLGEANHAMSLTLDPYACGPCPLLQLLGRRSNLAVYQDLALSQCHGVFAGQSVEGRNFRNQFQPVLRRRVMDMFNNGFLSAKTLTVALSEGAAICAPSLTAGQTAPAESSFEGDVARVTLGFPKELRVKSRVLFAGASANASEAAKARVASLQSAYQKPDKRVDILLGPLGFLLKQFHAAIFPNGKPPGSNQPNPQWFWTALQRNQLPARLLSREDIETIAFIKKFSLDYGAINFINLAPNNVSELAMYYMANQILRYCDHSTYFINTLTAIIAGSRRPPSVQAAAAWSAQGGAGLEAGARALMDAVDAHPGAWTSMFASCNLLRPVMAARPMVVLGLSISKYYGMAGNDRVFQAGNWASLMGGKNACPLLIFDRTRKFVLACPRAGFVCAASSLGGGAHESSLCEQLRGIISEGGAAVASSVFVATVKSLGPRTQQLQIEDWLALLEDEYLSEEMMELTARALERGNGEWSTDAALEVAHEAEALVSQLGNAGEVFNFGDFGCEDDNATPFGGPGAPGPAFAGRKRAFHGDDPFGEGPPDKKGDLTLDML
notes: also called full-length ICP8 form; source: insect cells, purified
With B1, the binding result in data set [1] is on record as “binds”.

B2: BALF2, DNA-binding protein of Epstein-Barr Virus (natural protein)
chain: MQGAQTSEDNLGSQSQPGPCGYIYFYPLATYPLREVATLGTGYAGHRCLTVPLLCGITVEPGFSINVKALHRRPDPNCGLLRATSYHRDIYVFHNAHMVPPIFEGPGLEALCGETREVFGYDAYSALPRESSKPGDFFPEGLDPSAYLGAVAITEAFKERLYSGNLVAIPSLKQEVAVGQSASVRVPLYDKEVFPEGVPQLRQFYNSDLSRCMHEALYTGLAQALRVRRVGKLVELLEKQSLQDQAKVAKVAPLKEFPASTISHPDSGALMIVDSAACELAVSYAPAMLEASHETPASLNYDSWPLFADCEGPEARVAALHRYNASLAPHVSTQIFATNSVLYVSGVSKSTGQGKESLFNSFYMTHGLGTLQEGTWDPCRRPCFSGWGGPDVTGTNGPGNYAVEHLVYAASFSPNLLARYAYYLQFCQGQKSSLTPVPETGSYVAGAAASPMCSLCEGRAPAVCLNTLFFRLRDRFPPVMSTQRRDPYVISGASGSYNETDFLGNFLNFIDKEDDGQRPDDEPRYTYWQLNQNLLERLSRLGIDAEGKLEKEPHGPRDFVKMFKDVDAAVDAEVVQFMNSMAKNNITYKDLVKSCYHVMQYSCNPFAQPACPIFTQLFYRSLLTILQDISLPICMCYENDNPGLGQSPPEWLKGHYQTLCTNFRSLAIDKGVLTAKEAKVVHGEPTCDLPDLDAALQGRVYGRRLPVRMSKVLMLCPRNIKIKNRVVFTGENAALQNSFIKSTTRRENYIINGPYMKFLNTYHKTLFPDTKLSSLYLWHNFSRRRSVPVPSGASAEEYSDLALFVDGGSRAHEESNVIDVVPGNLVTYAKQRLNNAILKACGQTQFYISLIQGLVPRTQSVPARDYPHVLGTRAVESAAAYAEATSSLTATTVVCAATDCLSQVCKARPVVTLPVTINKYTGVNGNNQIFQAGNLGYFMGRGVDRNLLQAPGAGLRKQAGGSSMRKKFVFATPTLGLTVKRRTQAATTYEIENIRAGLEAIISQKQEEDCVFDVVCNLVDAMGEACASLTRDDAEYLLGRFSVLADSVLETLATIASSGIEWTAEAARDFLEGVWGGPGAAQDNFISVAEPVSTASQASAGLLLGGGGQGSGGRRKRRLATVLPGLEV
notes: also called EBV BALF2; source: insect cells, purified
In the case of B2, the binding result in data set [2] is reported as “binds”.
